One assay has as its target MAb 400-3. As to the kind of experiment: MAb inhibition ELISA; free peptide inhibits 400-3 binding to coated hG17(1-9)-“Ala”-BSA. For orientation: An ELISA detects its analyte on a solid surface through an enzyme-linked reagent.
In another assay the target is MAb 400-2. In words: MAb inhibition ELISA; free peptide inhibits 400-2 binding to coated hG17(1-9)-“Ala”-BSA.
A further assay addresses MAb 400-4. As to the kind of experiment: MAb inhibition ELISA; free peptide inhibits 400-4 binding to coated hG17(1-9)-“Ala”-BSA.
Another assay has as its target MAb 445-1. In words: MAb inhibition ELISA; free peptide inhibits 445-1 binding to coated hG34(16-34)-Gly 35-BSA.
The next assay addresses MAb 445-2. In words: MAb inhibition ELISA; free peptide inhibits 445-2 binding to coated hG34(16-34)-Gly 35-BSA.
Assay [1] concerns the target MAb 458-1. As to the kind of experiment: MAb inhibition ELISA; free peptide against 458-1 binding to the coated target conjugate.
The next assay addresses MAb 400-1. As to the kind of experiment: MAb inhibition ELISA; free peptide inhibits 400-1 binding to coated hG17(1-9)-“Ala”-BSA.
In assay [2] the target is MAb 458-1. As to the kind of experiment: MAb inhibition ELISA; free peptide inhibits 458-1 binding to the coated target conjugate.
The target of the next assay is MAb 401-2. In words: MAb inhibition ELISA; free peptide inhibits 401-2 binding to the coated G34 N-terminal peptide-BSA.
The next assay deals with MAb 458-5. As to the kind of experiment: MAb inhibition ELISA; free peptide inhibits 458-5 binding to the coated target conjugate.
The target of the next assay is MAb 458-2. As to the kind of experiment: MAb inhibition ELISA; free peptide inhibits 458-2 binding to the coated target conjugate.
A further assay addresses MAb 458-4. In words: MAb inhibition ELISA; free peptide inhibits 458-4 binding to the coated target conjugate.
Assay [3] concerns the target MAb 458-3. In words: MAb inhibition ELISA; free peptide inhibits 458-3 binding to the coated target conjugate.
For assay [4], the target named is MAb 458-3. As to the kind of experiment: MAb inhibition ELISA; free peptide against 458-3 binding to the coated target conjugate.

Where no end group is shown, it is not given here. [ ]: non-standard residue; d: D form. pGlu = O=C1CC[C@@H](C(=O)O)N1

Consider [pGlu]GPWLEEEEEAYGWMDFG (ends and bridges not checked) [glycine-extended gastrin-17 (G17-Gly)], for which the IC50 with MAb 400-3 turned out to be 1390 nM; with MAb 400-2, 77 nM; with MAb 400-4 it was 699 nM; with MAb 445-1, 700 nM; with MAb 445-2, 5000 nM; in the assay with MAb 400-1, 1790 nM. The molecule further yielded an Inhibition at 10 nmol/ml (250 pmoles/well) in the assay with MAb 458-1 [1] of 2.1%.

With CPPPPSSYGWMDFG [hG17(12-17)-Gly18 peptide …], the IC50 in the assay with MAb 445-1 was 4000 nM; in the assay with MAb 445-2 it was 13000 nM.

Consider [pGlu]LGPQGPPHLVADPSKKEGPWLEEEEEAYGWMDF-NH2 (ends and bridges not checked) [human gastrin-34 (G34)], for which the Inhibition at 10 nmol/ml (250 pmoles/well) in the assay with MAb 458-1 [2] came to 93.5%; in the assay with MAb 458-5, 91.5%; in the assay with MAb 458-2, 84.5%; in the assay with MAb 458-4, 86.7%; with MAb 458-3 [3] it was 90.7%. In addition, the IC50 with MAb 401-2 worked out at 700 nM.

Take EGPWLEEEEEAYGWMDF (N-terminal pyroglutamic acid (pE); C-terminal Phe-NH2 (amide)) [human gastrin-17 (G17)]: the Inhibition at 10 nmol/ml (250 pmoles/well) stood at 94.3% in the assay with MAb 458-1 [2]; 91.9% with MAb 458-5; 86% with MAb 458-2; 88.4% with MAb 458-4; 92.4% with MAb 458-3 [3]. Also, the IC50 in the assay with MAb 400-3 is 1080 nM; with MAb 400-2 it was 85 nM; with MAb 400-4, 620 nM; with MAb 400-1 it was 2030 nM.

DYMGWMDF-NH2 [CCK (26-33) unsulfated]: the Inhibition at 10 nmol/ml (250 pmoles/well) in the assay with MAb 458-1 [2] came to 93.8%; in the assay with MAb 458-5 it was 92%; in the assay with MAb 458-2, 84.8%; with MAb 458-4, 83.4%; with MAb 458-3 [3] it was 84.8%.

Consider EGPWLEEEE [hG17(9)], for which the Inhibition at 10 nmol/ml (250 pmoles/well) in the assay with MAb 458-3 [4] stood at 1.2%.

As a reminder, the IC50 is the point on the concentration scale where inhibition reaches its midpoint. Low readings indicate higher potency, high ones lower potency. As a reminder, the Inhibition is the percentage by which the read-out fell short of the control. Lower therefore signals little suppression.
